Results from patent US10220090B2, “BCMA Antigen binding proteins” (Amgen Inc., priority 2012, dated 2019).
Substitutions are numbered along the chain they refer to.

T1: human BCMA (Homo sapiens, UniProt Q02223, N81S)
T1 construct: expressed in transfected cells
T1 sequence (Q02223 1-184 N81S): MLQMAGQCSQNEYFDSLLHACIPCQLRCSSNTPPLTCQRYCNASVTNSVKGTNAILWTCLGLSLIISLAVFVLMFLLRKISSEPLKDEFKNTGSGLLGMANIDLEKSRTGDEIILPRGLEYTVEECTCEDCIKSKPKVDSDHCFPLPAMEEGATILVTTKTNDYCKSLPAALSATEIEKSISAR

T2: BCMA on H929 cells (Homo sapiens, UniProt Q02223, N81S)
T2 construct: host or cells: H929
T2 sequence (Q02223 1-184 N81S): T1 sequence (Q02223 1-184 N81S)

B1: Ab-4: fully human anti-huBCMA mAb, Vh SEQ ID NO:212, Vl SEQ ID NO:246 (antibody, V domains shown)
VH: QVQLVQSGAEVKKPGASVKVSCKASGYTFTGHYIHWVRQAPGQGLEWMGWIYPNSGGTNYAQKFQGRVTMTRDTSISTAYMELSRLRSDDSAVYYCAREGMVTGDYYYYRMDVWGQGTTVIVSS
VL: QPVLTQPPSASASLGASVTLTCSLSSGYSNYKVDWYQQRPGKGPRFVMRVGIGGIVGSKGDGIPDRFSVLGSGLNRYLTIKNIQEEDESDFHCGADHGSGNNFVYVFGTGTKVTVLG
B2: 29C12.1 ADC (conjugate)
VH: EVQLLESGGALVQPGGSLRLSCAASGFTFSSYAMNWVRQAPGKGLEWVSAISVGGDTYYADSVKGRFTISRDNSKNTLYLQMNSLRAEDTAVYYCAKDQVTMVRGVWYYYGLDVWGQGTTVTVSS
VL: DIVMIQSPLSLPVTPGEPASISCRSSQSLLHSNGNNYLDWYLQKPGQSPHLLISLGSNRTSGVPDRFSGSGSGTDFTLKISRVEAEDVGVYYCMQALQPPRRFGQGTKLEIKR
B3: 32B5.1 ADC (conjugate)
VH: B2 VH with Q81H, M82V, R86S, T90S, M102L
VL: B2 VL with D1V, M4L, V90F
B4: 33C7.1 ADC (conjugate)
VH: B2 VH with Q81H, M82V, R86S, T90S, M102L
VL: B2 VL with D1V, M4L, V90F
B5: 35D2.1 ADC (conjugate)
VH: B2 VH with D56G, Q81H, M82V
VL: B2 VL with D1V, M4L, V90F
B6: 37B2.1 ADC (conjugate)
VH: B2 VH with S31N, Q81H, M82V, R86S, T90S, M102L
VL: B2 VL with D1V, M4L, V90F
B7: 40D7.1 ADC (conjugate)
VH: B2 VH
VL: B2 VL with Y37F, F67L, V90I, Q98R

Columns and labels:
[1] = tested on: various cell lines; experiment: Cell viability of various cell lines exposed to free DM1; assay type: cell-based; settings: control
Experimental: The ADCs were tested for the ability to target and kill BCMA-expressing myeloma cells. The CellTiter-Glo® Luminescent Cell Viability Assay is a homogeneous method to determine the number of viable cells in culture based on quantitation of the ATP present, which signals the presence of metabolically active cells. The CellTiter-Glo® Assay is applicable to cytotoxicity assays (see http://www.promega.com/products/cell-health-assays/cell-viability-assays/celltiter_glo-luminescent-cell-viability-assay/for more information). The cell viability assay was used to assess the relative killing capacity of various ADCs on various multiple myeloma cell lines and B-cell lines. The protocol provided in the Cell Titer-Glo kit (Promega G7572) was followed. In short, 5×10^3 target cells in 90 ul RPMI 1640, 10% FBS were aliquoted into clear, flat bottom, white walled 96 well plates (Costar #3903). The ADCs were diluted into a 10× stock to create 500 nM maytansine drug equivalents. Each ADC was serially diluted in 2-fold dilutions in RPMI 1640, 10% FBS starting with 500 nM stock. […] Luminescence was read on an EnVision™ Multilabel reader (PerkinElmer) or Analyst HT plate reader (LJL Biosciences). The data was analyzed and graphed using GraphPad Prism™ to determine the relative efficacy of the ADCs on various cancer cell lines. […]

[2] = target: T1, human BCMA; experiment: FACS binding on cells transiently transfected to express full length BCMA
Experimental: An important criterion is exquisite selectivity for wild-type human BCMA expressed on the surface of cells. FACS binding on cells transiently transfected to express full length BCMA, TACI, or BAFF-R was performed using standard techniques. Approximately 40×10^6 of the transiently-transfected target cells were resuspended in a staining solution (2% goat serum, 1% rabbit serum, 0.02% azide in PBS) and aliquoted into round-bottom, 96-well plate (Corning Incorp., Acton, Mass.) as per the experiment design. The cells were incubated at 4 degrees celsius for 30 minutes to block non-specific sites. The antibodies were titrated into the staining solution. The cells were rinsed in a rinse solution (PBS+0.02% azide) by resuspending the cells in 200 ul/well. The cells were centrifuged at 1500 rpm at 4 degrees celsius for 7 minutes. The rinse solution was removed and the rinse step was repeated. The cells were resuspended in the appropriate antibody solution (see the matrix in TABLE 4) at 30 ul/well and incubated at 4 degrees celsius for 30 minutes. […] For the mouse IgG1 negative control and the two mouse antibodies (1.183 and 1.288), the secondary reagent was an anti-mouse IgG-PE conjugate (BD Pharmingen Cat. 550589). The cells/antibodies were rinsed as described above to remove excess/unbound antibody. […] Samples were read at 532 nm wavelength on FACS. […]

[3] = target: T2, BCMA on H929 cells; experiment: FACS binding to native BCMA on H929 myeloma cells
Experimental: Approximately 10 to 40×10^6 of H929 myeloma cells were resuspended in a staining solution (2% goat serum, 1% rabbit serum, 0.02% azide in PBS) and aliquoted into round-bottom, 96-well plate (Corning Incorp., Acton, Mass.) as per the experiment design. The cells were incubated at 4 degrees celsius for 30 minutes to block non-specific sites. The antibodies were titrated into the staining solution. The cells were rinsed in a rinse solution (PBS+0.02% azide) by resuspending the cells in 200 ul/well. The cells were centrifuged at 1500 rpm at 4 degrees celsius for 7 minutes. The rinse solution was removed and the rinse step was repeated. […] The cells/antibodies were rinsed as described above to remove excess/unbound antibody. After the last rinse, the cells were resuspended in 200 ul of rinse solution with a drop of staining solution added to keep the cells from aggregating.
The antibodies were tested for binding to BCMA endogenously-expressed on a variety of cells, including the H929 cell line, which were developed from B-lymphocytes from a myeloma/plasmacytoma patient (ATCC, Manassa, Va.) using standard FACs techniques. […] The supernatants were removed and the cell pellets were resuspended in 0.2 mL/tube 4% paraformaldehyde in PBS and analyzed by flow cytometry

[4] = tested on: H929; experiment: CellTiter-Glo Luminescent Cell Viability Assay, H929; assay type: cell-based, human; settings: ADCs of hybridoma-derived antibodies
Experimental: The ADCs were tested for the ability to target and kill BCMA-expressing myeloma cells. The CellTiter-Glo® Luminescent Cell Viability Assay is a homogeneous method to determine the number of viable cells in culture based on quantitation of the ATP present, which signals the presence of metabolically active cells. The CellTiter-Glo® Assay is applicable to cytotoxicity assays (see http://www.promega.com/products/cell-health-assays/cell-viability-assays/celltiter_glo-luminescent-cell-viability-assay/for more information). The cell viability assay was used to assess the relative killing capacity of various ADCs on various multiple myeloma cell lines and B-cell lines. The protocol provided in the Cell Titer-Glo kit (Promega G7572) was followed. […] The ADCs were diluted into a 10× stock to create 500 nM maytansine drug equivalents. […] 10 ul of the 10×ADC dilution series was added to the 90 ul of cells in media (triplicate wells). The highest concentration of ADC was approximately 50 nM maytansine drug equivalents, and the lowest concentration of ADC was approximately 50 pM maytansine drug equivalents. An isotype control ADC (an anti-streptavidin huIgG1 conjugated to MCC-DM1) was included, as well as a media-only control. The plates were incubated at 37° C., 5% CO2 for 96 hours. After incubation, 100 ul of the Substrate Solution (Promega G7572) was added to each well. Luminescence was read on an EnVision™ Multilabel reader (PerkinElmer) or Analyst HT plate reader (LJL Biosciences). The data was analyzed and graphed using GraphPad Prism™ to determine the relative efficacy of the ADCs on various cancer cell lines.
The 2A1CV5-MCC-DM1, 32B5-MCC-DM1 and 29C12-MCC-DM1 ADCs were tested for the ability to target and kill BCMA-expressing myeloma cells (H929). The CellTiter-Glo® Luminescent Cell Viability Assay is a homogeneous method to determine the number of viable cells in culture based on quantitation of the ATP present, which signals the presence of metabolically active cells. The CellTiter-Glo® Assay is applicable to cytotoxicity assays (see http://www.promega.com/products/cell-health-assays/cell-viability-assays/celltiter_glo-luminescent-cell-viability-assay/for more information). The cell viability assay was used to assess the relative killing capacity of various ADCs on various multiple myeloma cell lines and B-cell lines. The protocol provided in the Cell Titer-Glo kit (Promega G7572) was followed. […] The ADCs were diluted into a 10× stock to create 500 nM maytansine drug equivalents. […] 10 ul of the 10×ADC dilution series was added to the 90 ul of cells in media (triplicate wells). The highest concentration of ADC was approximately 50 nM maytansine drug equivalents, and the lowest concentration of ADC was approximately 50 pM maytansine drug equivalents. An isotype control ADC (an anti-streptavidin huIgG1 conjugated to MCC-DM1) was included, as well as a media-only control. The plates were incubated at 37° C., 5% CO2 for 96 hours. After incubation, 100 ul of the Substrate Solution (Promega G7572) was added to each well. Luminescence was read on an EnVision™ Multilabel reader (PerkinElmer) or Analyst HT plate reader (LJL Biosciences). The data was analyzed and graphed using GraphPad Prism™ to determine the relative efficacy of the ADCs on various cancer cell lines.

Molecule	cytotoxicity to huBCMA-expressing myeloma target cells (H929) [4]	other results
COc1cc2cc(c1Cl)N(C)C(=O)C[C@H](OC(=O)[C@H](C)N(C)C(=O)CCS)[C@]1(C)O[C@H]1[C@H](C)[C@@H]1C[C@@](O)(NC(=O)O1)[C@H](OC)/C=C/C=C(\C)C2 [DM1]		killing by free DM1 [1]: killed by free DM1
B1		BCMA (FACS binding) [2]: + (A sample was considered positive for binding if the MFI was two times the negative control value); binding to human BCMA on the surface of H929 myeloma cell line [3]: bound to human BCMA
B2	showed cytotoxicity	
B3	showed cytotoxicity	
B4	showed cytotoxicity	
B5	showed cytotoxicity	
B6	showed cytotoxicity	
B7	showed cytotoxicity	
